According to publication doi:10.1101/2022.02.11.480038 (2022):
Where no end group is shown, it is not given here. [ ]: non-standard residue; d: D form. pS = N[C@@H](COP(=O)(O)O)C(=O)O

B1: Human GABARAP (residues 1-116) (natural protein)
chain: MKFVYKEEHPFEKRRSEGEKIRKKYPDRVPVIVEKAPKARIGDLDKKKYLVPSDLTVGQFYFLIRKRIHLRAEDALFFFVNNVIPPTSATMGQLYQEHHEEDFFLYIAYSDESVYG

Assays:
Assay in all cases: ITC
[1] = target: Human LC3B (residues 1-120) (human, UniProt Q9GZQ8 1-120)
[2] = target: B1
[3] = target: GABARAP Y5F H9A mutant (human, UniProt O95166 1-116, Y5F | H9A)
GABARAP Y5F H9A mutant, sequence (O95166 1-116 Y5F/H9A): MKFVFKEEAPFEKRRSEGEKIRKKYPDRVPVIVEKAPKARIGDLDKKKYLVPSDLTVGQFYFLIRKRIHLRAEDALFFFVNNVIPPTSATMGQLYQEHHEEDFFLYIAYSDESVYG

[4] = target: Y5F H9A K48A
[5] = target: TEX264 269-278 S271A,S272A

| Binder | Kd [1] [µM] | Kd [2] [µM] | Kd [3] [µM] | Kd [4] [µM] | Kd [5] [µM] |
| --- | --- | --- | --- | --- | --- |
| [pS]G[pS][pS]FEELDL [TEX264 peptide (residues 269-278) with p-S269, p-S271, p-S272] | 0.25 | 0.25 | – | – | – |
| SG[pS][pS]FEELDL [phosphorylated TEX264 LIR (residues 269-278 with p-S271,p-S272)] | 0.37 | 0.52 | 2.2 | 30 | – |
| SGEEFEELDL [phosphomimetic TEX264^(S271, 272E) peptide (2SE-LIR)] | 5.2 | 2.3 | – | – | – |
| SGS[pS]FEELDL [TEX264 peptide (residues 269-278) with S272 phosphorylation (p-S272)] | 0.57 | 2.1 | – | – | – |
| [pS]GASGSSFEELDL [TEX264 LIR peptide (residues 266-278) with S266 phosphorylation (p-S266)] | 22 | 9.3 | – | – | – |
| SGDDFEELDL [phosphomimetic TEX264^(S271D, S272D) peptide (2SD-LIR)] | 7.6 | 2.1 | – | – | – |
| DGDDFEELDL [phosphomimetic TEX264^(S269D, S271D, S272D) peptide (3SD-LIR)] | 6.8 | 2.2 | – | – | – |
| EGEEFEELDL [phosphomimetic TEX264^(S269E, S271E, S272E) peptide (3SE-LIR)] | 5 | 2.2 | – | – | – |
| SGSSFEELDL [TEX264 LIR peptide (residues 269-278), unphosphorylated wild type] | 21 | 47 | – | – | – |
| B1 | – | – | – | – | 72 |
| SGASGSSFEELDL [TEX264 LIR peptide (residues 266-278), unphosphorylated] | 39 | 61 | – | – | – |
